Patent publication US12564600B2, “System for enhancing therapeutic compliance of the anti-cancer compound E7766” (Eisai R&D Management Co., Ltd., priority 2019, dated 2026)

Substrate: O=[P@]1(S)OC[C@H]2OC3[C@H](F)[C@@H]2O[P@](=O)(S)OC[C@H]2O[C@H]([C@H](F)[C@@H]2O1)n1cnc2c(ncnc21)NC/C=C/CNc1ncnc2c1ncn23
Assay: Uptake in HEK293 cells overexpressing OATP1B1
Assay type: in vitro ADME, human
Details: other: Simcyp input parameter, Table 3; 37.0 °C
Procedure: TransportoCells™ (Corning, N.Y., USA) expressing OATP2B1, NTCP, and HEK293-FT cells stably transfected with the vector containing OATP1B1 cDNA or OATP1B3 cDNA or empty vector were grown in a Dulbecoo's modified Eagle's medium fortified with 10% fetal calf serum and 2 mmol/L sodium butyrate (for NTCP only) in a humidified incubator at 37° C. and 5% CO2. Cells were harvested at 90% confluence and then seeded in poly-D-lysine-coated 24-well 24 h prior to transporter assay. Cells were washed twice and pre-incubated with 200 μL of pre-warmed Krebs-Henseleit buffer. After pre-incubation, cells were incubated with 3 or 10 μmol L-1 of Compound 1 in presence or absence of 100 μmol L-1 of inhibitors (Rifamycin SV for OATP2B1, Troglitazone for NTCP, Rifamycin for OATP1B1 and OATP1B3). The transport reaction was terminated by aspirating the buffer from the wells at designated time. After washing three times with 200 μL of ice-cold Krebs-Henseleit buffer, the cells were lysed and the resulting cellular lysates were analyzed by LC-MS/MS.
Concentration-dependent uptake of Compound 1 via OATP1B1 and OATP1B3 were conducted with a concentration range of 0.25-100 μmol L-1 under linear uptake. All experiments were run in triplicates.

B1: OATP1B1 (Homo sapiens) (protein)
chain: MDQNQHLNKTAEAQPSENKKTRYCNGLKMFLAALSLSFIAKTLGAIIMKSSIIHIERRFEISSSLVGFIDGSFEIGNLLVIVFVSYFGSKLHRPKLIGIGCFIMGIGGVLTALPHFFMGYYRYSKETNINSSENSTSTLSTCLINQILSLNRASPEIVGKGCLKESGSYMWIYVFMGNMLRGIGETPIVPLGLSYIDDFAKEGHSSLYLGILNAIAMIGPIIGFTLGSLFSKMYVDIGYVDLSTIRITPTDSRWVGAWWLNFLVSGLFSIISSIPFFFLPQTPNKPQKERKASLSLHVLETNDEKDQTANLTNQGKNITKNVTGFFQSFKSILTNPLYVMFVLLTLLQVSSYIGAFTYVFKYVEQQYGQPSSKANILLGVITIPIFASGMFLGGYIIKKFKLNTVGIAKFSCFTAVMSLSFYLLYFFILCENKSVAGLTMTYDGNNPVTSHRDVPLSYCNSDCNCDESQWEPVCGNNGITYISPCLAGCKSSSGNKKPIVFYNCSCLEVTGLQNRNYSAHLGECPRDDACTRKFYFFVAIQVLNLFFSALGGTSHVMLIVKIVQPELKSLALGFHSMVIRALGGILAPIYFGALIDTTCIKWSTNNCGTRGSCRTYNSTSFSRVYLGLSSMLRVSSLVLYIILIYAMKKKYQEKDINASENGSVMDEANLESLNKNKHFVPSAGADSETHC
notes: expressed in transfected cells; host or cells: HEK293-FT
Km: 2.200 µM
